Patent US20230114801A1 (SYSTIMMUNE, published 2023)

Legend:
Assay in all cases: BLI (Octet), binder on AHC sensor; antigen conditions not stated
human PD-L1 = target: T1, human PD-L1 (human, UniProt Q9NZQ7 19-238)
T1 construct: Soluble antigen in Octet; bought; also called human PD-L1 (Acro PD1-H5229)

human 4-1BB = target: T2, human 4-1BB (human, UniProt Q07011 24-186, limits assumed)
T2 construct: Soluble antigen in Octet; construct not described

CD19 = target: T3, CD19 (UniProt P15391 20-291, limits assumed)
T3 sequence (looked up): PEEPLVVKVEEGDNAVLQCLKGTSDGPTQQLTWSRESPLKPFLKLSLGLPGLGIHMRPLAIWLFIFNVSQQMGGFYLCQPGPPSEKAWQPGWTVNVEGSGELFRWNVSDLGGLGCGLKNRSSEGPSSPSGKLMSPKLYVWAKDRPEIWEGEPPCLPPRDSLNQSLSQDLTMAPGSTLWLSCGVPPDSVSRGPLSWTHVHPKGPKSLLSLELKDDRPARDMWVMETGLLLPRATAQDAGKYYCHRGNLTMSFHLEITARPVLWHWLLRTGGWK

B1: SI-68P16 (other)
chain 1: DPVLTQSPSSLSASVGDRVTISCQSSQSVAKNNNLAWFQQKPGQAPKLLIYSASTLAAGVPSRFSGSGSGTDFTLTISSVQPEDFATYYCSARDSGNIQSFGGGTKVEIKGGGGSGGGGSGGGGSGGGGSQQLVESGGGLVKPGGSLRLSCAASGIDLSSNAIGWVRQAPGKGLEWVGVIFGSGNTYYASWAKGRFTISRSKNTVYLQMNSLRAEDTAVYYCARGGYSSDIWGQGTLVTVSSGGGGSGGGGSQVQLQQSGPGLVKPSETLSITCTVSGFSLTNYGVHWIRQAPGKGLEWLGVIWSGGNTDYNTPFTSRFTITKDNSKNQVYFKLRSVRADDTAIYYCARALTYYDYEFAYWGQGTLVTVSSASTKGPSVFPLAPSSKSTSGGTAALGCLVKDYFPEPVTVSWNSGALTSGVHTFPAVLQSSGLYSLSSVVTVPSSSLGTQTYICNVNHKPSNTKVDKRVEPKSCDKTHTCPPCPAPEAAGGPSVFLFPPKPKDTLMISRTPEVTCVVVDVSHEDPEVKFNWYVDGVEVHNAKTKPREEQYNSTYRVVSVLTVLHQDWLNGKEYKCAVSNKALPAPIEKTISKAKGQPREPQVYTLPPSRDELTKNQVSLSCAVKGFYPSDIAVEWESNGQPENNYKTTPPVLDSDGSFFLVSKLTVDKSRWQQGNVFSCSVMHEALHNHYTQKSLSLSPGGGGGSGGGGSDVVMTQSPSSVSASVGDRVTITCQASQNIRTYLSWYQQKPGKAPKLLIYAAANLASGVPSRFSGSGSGTDFTLTISDLEPGDAATYYCQSTYLGTDYVGGAFGGGTKLTVLGGGGSGGGGSGGGGSGGGGSEVQLVESGGGLVQPGGSLRLSCTASGFTISSYHMQWVRQAPGKGLEYIGTISSGGNVYYASSARGRFTISRPSSKNTVDLQMNSLRAEDTAVYYCARDSGYSDPMWGQGTLVTVSS
chain 2: ENVLTQSPASLSASPGERVTITCSASSSVSYMHWYQQKPGQAPKLWIYDTSKLASGVPSRFSGSGSGNDHTLTISSMEPEDFATYYCFQGSVYPFTFGQGTKVTVLGGGGSGGGGSGGGGSGGGGSQVTLKESGPGLVQPGQTLSLTCAFSGFSLSTSGMGVGWIRQPPGKGLEWLAHIWWDDDKRYNPALKSRLTISKDTSKNQVYLQMNSLDAEDTAVYYCARMELWSYYFDYWGQGTLVTVSSGGGGSGGGGSEIVLTQSPSTLSVSPGERATFSCRASQSIGTNIHWYQQKPGKPPRLLIKYASESISGIPDRFSGSGSGTEFTLTISSVQSEDFAVYYCQQNNNWPTTFGPGTKLTVLRTVAAPSVFIFPPSDEQLKSGTASVVCLLNNFYPREAKVQWKVDNALQSGNSQESVTEQDSKDSTYSLSSTLTLSKADYEKHKVYACEVTHQGLSSPVTKSFNRGECGGDKTHTCPPCPAPEAAGGPSVFLFPPKPKDTLMISRTPEVTCVVVDVSHEDPEVKFNWYVDGVEVHNAKTKPREEQYNSTYRVVSVLTVLHQDWLNGKEYKCAVSNKALPAPIEKTISKAKGQPREPQVYTLPPSRDELTKNQVSLWCLVKGFYPSDIAVEWESNGQPENNYKTTPPVLDSDGSFFLYSKLTVDKSRWQQGNVFSCSVMHEALHNRFTQKSLSLSPGGGGGSGGGGSDIQMTQSPSTLSASVGDRVTITCQASQSISSHLNWYQQKPGKAPKLLIYKASTLASGVPSRFSGSGSGTEFTLTISSLQPDDFATYYCQQGYSWGNVDNVFGGGTKVTVLGGGGSGGGGSGGGGSGGGGSEVQLLESGGGLVQPGGSLSLSCAASGFSFSSGYDMCWVRQAPGKGLEWIACIAAGSAGITYDANWAKGRFTISRDNSKNTLYLQMNSLRAEDTAVYYCARSAFSFDYAMDLWGQGTLVTVSS
notes: penta-miniGNC; D1 αCD3***** (humanized framework 4), D2 αCD19, D3 αEGFR (Fab), D4 α4-1BB, D5 αPD-L1
Question: B1 was tested. Which Kd (human PD-L1) did it give?
Answer: 0.5 nM

Question: And the Kd (human 4-1BB)?
Answer: 23.3 nM

Question: What about the Kd (CD19) of the same binder?
Answer: 2.55 nM
